# Data published in patent US20110076682A1 (WISCONSIN ALUMNI RESEARCH FOUNDATION, published 2011).
# T1: VeA::TAP* (VeA tagged at its C terminus by TAP tag, veA::ctap*) (Aspergillus nidulans, UniProt C8VTV4 1-573)
# T1 construct: 85 kDa on the immunoblot; also called tagged VeA; VeA::TAP* tag
# T1 sequence: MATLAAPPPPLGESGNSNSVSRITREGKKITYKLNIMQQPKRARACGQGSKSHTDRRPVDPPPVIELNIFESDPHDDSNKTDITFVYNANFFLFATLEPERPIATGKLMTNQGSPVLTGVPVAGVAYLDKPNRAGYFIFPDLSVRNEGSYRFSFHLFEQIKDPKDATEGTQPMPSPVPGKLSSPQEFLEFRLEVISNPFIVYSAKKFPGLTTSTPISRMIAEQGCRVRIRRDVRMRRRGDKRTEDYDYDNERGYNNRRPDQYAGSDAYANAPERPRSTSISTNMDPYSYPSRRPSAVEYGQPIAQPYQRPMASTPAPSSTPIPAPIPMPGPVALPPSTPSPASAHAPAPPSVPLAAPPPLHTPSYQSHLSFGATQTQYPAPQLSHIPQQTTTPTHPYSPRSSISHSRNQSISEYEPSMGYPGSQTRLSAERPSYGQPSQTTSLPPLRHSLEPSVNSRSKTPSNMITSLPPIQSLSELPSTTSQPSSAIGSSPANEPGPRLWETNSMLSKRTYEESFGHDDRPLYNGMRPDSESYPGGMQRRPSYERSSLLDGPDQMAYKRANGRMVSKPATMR
# T2: VeA yeast two-hybrid fusion (veA ORF in pTLexA or pGAD424) (Aspergillus nidulans, UniProt C8VTV4 1-573)
# T2 construct: also called pNJ04; pNJ05
# T2 sequence: T1 sequence
# T3: N-EYFP::VeA (Aspergillus nidulans, UniProt C8VTV4 1-573)
# T3 construct: BiFC construct expressed in A. nidulans (pME3188, pME3189); also called enhanced yellow fluorescent protein fused to the N terminus of veA; not shown: N-terminal part of EYFP (n-eyfp)
# T3 sequence: T1 sequence
# B1: regulator of sporogenesis VosA (other)
# chain: MSAANYPDPSLPRPSTSDDFELIVRQNPNRARVAGGKEKERKPVDPPPIVQIRVREEGTYLAQHYLQSPYFFMSCSLYDAQEDAPASIPPSTALTGTLVSSLHRLKDVDNTDGGFFVWGDLSIKVEGDFRLKFSLFEMRKTDVVFLKSIVSERFTVSPPKSFPGMAESTFLSRSFADQGVKLRIRKEPRTLIKRTAPRPEEYPQAAIPRSPSDRTAMQIPGSSYPAPPYQPTSRDYSYYAPVKRQRTSVDYGARGMYDADGRMRQMETYPQTATLYGQPGGYPTPMMGYPSGHGGVPDYAMSYGLPPSAQVPQMQDPAAQSRSSQQATMQSLGMVNPPGTPTPDSARAMMQQAYPRPQYSASTAVLPPLQQSRNYPQGTNGATRGYYEQSPQATPILPSQPLGTSEAERYGVPPGHTGYDHTGSANGTPR
# notes: Endogenous untagged protein co-purified from A. nidulans extracts
# B2: VelB yeast two-hybrid fusion (velB ORF in pTLexA or pGAD424) (other)
# chain: MYAVEDRAHSGHHPPPLSMDRIPPPSTMYPSSAGPSAMVSPAGQPEPESLSTVHDGRIWSLQVVQQPIRARMCGFGDKDRRPITPPPCIRLIVKDAQTQKEVDINSLDSSFYVVMADLWNADGTHEVNLVKHSATSPSISTAMSSSYPPPPHPTSSDYPASYQTNPYGQPVGQPVGQPVGYAGVGNYYGGSTQLQYQNAYPNPQAQYYQPMYGGMAQPQMPAAQPVTPGPGGMFTRNLIGCLSASAYRLYDTEDKIGVWFVLQDLSVRTEGIFRLKFSFVNVGKSVSDLPQSDIAEVINKGTAPILASTFSEPFQVFSAKKFPGVIESTPLSKVFANQGIKIPIRKDGVKGQGSRGRHSDEDDGLDNEY
# notes: also called pNJ20; pNJ23
# B3: C-EYFP::VelB (other)
# chain: B2 chain
# notes: BiFC construct expressed in A. nidulans (pME3189, strain AGB388); not shown: C-terminal part of EYFP (c-eyfp)
# B4: C-EYFP::LaeA (other)
# chain: MFEMGPVGTRLPAMTSPAHNHYSYHSPTSSDRGRSRQNSDAMDIQSITEREPATRYAVAGGPAPWNRNGSPSMSPMYSNNSERNQFHEENGRTYHGFRRGMYFLPCDEQEQDRLDIFHKLFTVARVSESLIYAPHPTNGRFLDLGCGTGIWAIEVANKYPDAFVAGVDLAPIQPPNHPKNCEFYAPFDFEAPWAMGEDSWDLIHLQMGCGSVMGWPNLYRRIFAHLRPGAWFEQVEIDFEPRCDDRSLDGTALRHWYDCLKQATAETMRPIAHSSRDTIKDLQDAGFTEIDHQIVGLPLNPWHQDEHERKVARWYNLAVSESIENLSLAPFSRVYRWPLERIQQLAADVKSEAFNKEIHAYNILHIYQARKPLR
# notes: BiFC construct expressed in A. nidulans (pME3188, strain AGB307); not shown: C-terminal part of EYFP (c-eyfp)
# B5: LaeA (other)
# chain: B4 chain
# notes: Endogenous untagged protein co-purified from A. nidulans extracts; also called regulator LaeA
# Assays:
# [1] = molecular target: T1, VeA::TAP* (VeA tagged at its C terminus …); experiment: tandem affinity purification and mass spectrometry, dark
# [2] = molecular target: T2, VeA yeast two-hybrid fusion (veA ORF in …); experiment: yeast two-hybrid
# [3] = molecular target: T3, N-EYFP::VeA; experiment: bimolecular fluorescence complementation in living A. nidulans cells
# [4] = molecular target: T1, VeA::TAP* (VeA tagged at its C terminus …); experiment: tandem affinity purification of veA::ctap* and mass spectrometry, dark
binder,measurement,setting,value
B1,binding result,[1],no binding
B2,binding result,[2],binds
B3,binding result,[3],binds
B4,binding result,[3],binds
B5,binding result,[4],binds
